From patent publication US20190338048A1 come the findings set out here.

Like-named read-outs stand apart in the source and are kept apart here.

The target in assay [1] is Design 3951 L2: SGN-CD19a kappa light chain S121K_S131K_S176K. The assay can be described thus: SMCA: H1, L1, H2, L2 co-expressed, protein A, LC-MS.
The target is the same in assay [2]. The description is as above. The source holds these as a separate data set.
Assay [3] has the same target. The description is as above. This is another data set of the same source.
Assay [4] has as its target CR8071 lambda light chain K129T_V133D (L1 of designs 3102 and 3109, system C). As to the kind of experiment: SMCA LC-MS.
Assay [5] has the same target. The assay can be described thus: SMCA LC-MS. The source holds these as a separate data set.
Assay [6] shares this target. As to the kind of experiment: SMCA LC-MS. The source holds these as a separate data set.
Assay [7] addresses SGN-CD19a kappa light chain Q124K_V133A_T178R (L2 of design 3109, systems B and C). The assay can be described thus: SMCA LC-MS.
The target is the same in assay [8]. The assay can be described thus: SMCA LC-MS. The source holds these as a separate data set.
For assay [9] the target is unchanged. As to the kind of experiment: SMCA LC-MS. The source holds these as a separate data set.
The target of assay [10] is Design 3947 L2: SGN-CD19a kappa light chain S131K_S176K. The assay can be described thus: SMCA: H1, L1, H2, L2 co-expressed, protein A, LC-MS.
The target is the same in assay [11]. The assay is described as above. The source holds these as a separate data set.
Assay [12] shares this target. The description is as above. This is another data set of the same source.
For assay [13], the target named is CAT-2200 lambda light chain S176K_Y178R (L1), N-terminal FLAG tag. As to the kind of experiment: LCCA, SPR of light chain tags.
Assay [14] addresses CAT-2200 lambda light chain S176K_Y178K (L1), N-terminal FLAG tag. The assay can be described thus: LCCA, SPR of light chain tags.
Assay [15] addresses Pertuzumab kappa light chain Q124E_V133D (L2), N-terminal HA tag. The assay can be described thus: LCCA, SPR of light chain tags.
Assay [16] has as its target Pertuzumab kappa light chain V133D (L2), N-terminal HA tag. The assay can be described thus: LCCA, SPR of light chain tags.
In assay [17] the target is Pertuzumab kappa light chain Q124E_V133D (L2), N-terminal HA tag. The assay can be described thus: LCCA, SPR of light chain tags. The source holds these as a separate data set.
The target of assay [18] is Pertuzumab kappa light chain V133D (L2), N-terminal HA tag. The assay can be described thus: LCCA, SPR of light chain tags. The source holds these as a separate data set.
Assay [19] addresses Pertuzumab kappa light chain Q124E_V133D (L2), N-terminal HA tag. As to the kind of experiment: LCCA, SPR of light chain tags. This is another data set of the same source.
Assay [20] concerns the target CAT-2200 lambda light chain S176K_Y178R (L1), N-terminal FLAG tag. The assay can be described thus: LCCA, SPR of light chain tags. This is another data set of the same source.
The target of assay [21] is CAT-2200 lambda light chain S176K_Y178L (L1), N-terminal FLAG tag. As to the kind of experiment: LCCA, SPR of light chain tags.
For assay [22], the target named is Pertuzumab kappa light chain V133G_S176D (L2), N-terminal HA tag. As to the kind of experiment: LCCA, SPR of light chain tags.
Assay [23] concerns the target Pertuzumab kappa light chain V133G_S176D_T178D (L2), N-terminal HA tag. As to the kind of experiment: LCCA, SPR of light chain tags.
Assay [24] addresses Pertuzumab kappa light chain V133G_S176D (L2), N-terminal HA tag. As to the kind of experiment: LCCA, SPR of light chain tags. The source holds these as a separate data set.
Assay [25] deals with CAT-2200 lambda light chain S176K_Y178R (L1), N-terminal FLAG tag. The assay can be described thus: LCCA, SPR of light chain tags. The source holds these as a separate data set.
In assay [26] the target is Pertuzumab kappa light chain V133G_S176D (L2), N-terminal HA tag. As to the kind of experiment: LCCA, SPR of light chain tags. This is another data set of the same source.
Assay [27] addresses CAT-2200 lambda light chain Y178K (L1), N-terminal FLAG tag. The assay can be described thus: LCCA, SPR of light chain tags.
Assay [28] deals with Pertuzumab kappa light chain S176E_T178E (L2), N-terminal HA tag. As to the kind of experiment: LCCA, SPR of light chain tags.
For assay [29], the target named is Pertuzumab kappa light chain S176D_T178E (L2), N-terminal HA tag. The assay can be described thus: LCCA, SPR of light chain tags.
In assay [30] the target is CAT-2200 lambda light chain S176K_Y178R (L1), N-terminal FLAG tag. As to the kind of experiment: LCCA, SPR of light chain tags. This is another data set of the same source.
Assay [31] addresses CAT-2200 lambda light chain S176K_Y178L (L1), N-terminal FLAG tag. The assay can be described thus: LCCA, SPR of light chain tags. This is another data set of the same source.
Assay [32] has as its target Pertuzumab kappa light chain S131E_V133G_T178F (L2), N-terminal HA tag. The assay can be described thus: LCCA, SPR of light chain tags.
Assay [33] has as its target Pertuzumab kappa light chain S131D_V133G_T178F (L2), N-terminal HA tag. The assay can be described thus: LCCA, SPR of light chain tags.
The target in assay [34] is Pertuzumab kappa light chain S176E_T178E (L2), N-terminal HA tag. As to the kind of experiment: LCCA, SPR of light chain tags. This is another data set of the same source.
Assay [35] concerns the target Pertuzumab kappa light chain S176D_T178E (L2), N-terminal HA tag. As to the kind of experiment: LCCA, SPR of light chain tags. This is another data set of the same source.
Assay [36] concerns the target Pertuzumab kappa light chain S131E_V133G_T178F (L2), N-terminal HA tag. The assay can be described thus: LCCA, SPR of light chain tags. The source holds these as a separate data set.
For assay [37], the target named is Pertuzumab kappa light chain S131D_V133G_T178F (L2), N-terminal HA tag. As to the kind of experiment: LCCA, SPR of light chain tags. This is another data set of the same source.
Assay [38] addresses Pertuzumab kappa light chain S176E_T178E (L2), N-terminal HA tag. The assay can be described thus: LCCA, SPR of light chain tags. This is another data set of the same source.
Assay [39] concerns the target Pertuzumab kappa light chain S176D_T178E (L2), N-terminal HA tag. The assay can be described thus: LCCA, SPR of light chain tags. This is another data set of the same source.
Assay [40] has as its target Pertuzumab kappa light chain S131E_V133G_T178F (L2), N-terminal HA tag. The assay can be described thus: LCCA, SPR of light chain tags. This is another data set of the same source.
Assay [41] deals with Pertuzumab kappa light chain S131D_V133G_T178F (L2), N-terminal HA tag. The assay can be described thus: LCCA, SPR of light chain tags. The source holds these as a separate data set.
The target in assay [42] is Pertuzumab kappa light chain S176E_T178E (L2), N-terminal HA tag. The assay can be described thus: LCCA, SPR of light chain tags. The source holds these as a separate data set.
Assay [43] has as its target Pertuzumab kappa light chain S176D_T178E (L2), N-terminal HA tag. As to the kind of experiment: LCCA, SPR of light chain tags. This is another data set of the same source.
Assay [44] deals with CAT-2200 lambda light chain S176K_Y178R (L1), N-terminal FLAG tag. As to the kind of experiment: LCCA, SPR of light chain tags. This is another data set of the same source.
Assay [45] addresses CAT-2200 lambda light chain S176K_Y178K (L1), N-terminal FLAG tag. The assay can be described thus: LCCA, SPR of light chain tags. This is another data set of the same source.
For assay [46], the target named is CAT-2200 lambda light chain S176K_Y178L (L1), N-terminal FLAG tag. The assay can be described thus: LCCA, SPR of light chain tags. The source holds these as a separate data set.
For assay [47], the target named is Pertuzumab wild-type kappa light chain with N-terminal FLAG tag. The assay can be described thus: SMCA: H1, H2, L1, L2 co-expressed in CHO-3E7.

“Design 3951 H2: SGN-CD19a heavy chain K145T_S186E_K228D”: the % H2L2 Pairing in [1] turned out to be 97.1%; in [2], 77.5%. The Change in % H2L2 Pairing with respect to wild type in assay [1] stood at 25.8%; in assay [3], 23.3%.

Take “CR8071 heavy chain L143K (H1 of designs 3102 and 3109, system C)”: the % H1L1 Pairing in assay [4] stood at 84%; in assay [6], 88.7%. Besides, the figures for the Change in % H1L1 Pairing with respect to wild type in assay [5] and in assay [6] were 15.9% and 6.4%, respectively.

Regarding “SGN-CD19a heavy chain L124W_L143E_K145T_Q179E (H2 of design 3109, systems B and C)”, the figures for the % H2L2 Pairing in assay [7] and in assay [8] were 99.6% and 97.1%, respectively. For the same substance, the Change in % H2L2 Pairing with respect to wild type turned out to be 42.9% in assay [8] and 28.3% in assay [9].

For “Design 3947 H2: SGN-CD19a heavy chain K145T_S186E”, the % H2L2 Pairing stood at 94.5% in assay [10] and 70.3% in [11]. Further, the Change in % H2L2 Pairing with respect to wild type in assay [10] was found to be 23.2%; in assay [12] it was 16.1%.

With “Pertuzumab Fab heavy chain L143K (H2), ABD2-His6 tagged”, the H2L2:H2L1 normalized median ratio came to 12% in assay [13]; 14% in assay [14]; 86% in assay [15]; 77% in assay [16]; 88% in [17]; 80% in assay [18]. Further, the H2L2:H2L1 normalized median ratio in assay [19] was 93%; in assay [20] it was 20%. The H2L2:H2L1 normalized median scalar value ln(r1/f1) in assay [15] came out at 1.78; in assay [16], 1.2; in assay [17] it was 1.95; in assay [18] it was 1.39; in [19], 2.64.

On to “Pertuzumab Fab heavy chain L124R (H2), ABD2-His6 tagged”, for which the H2L2:H2L1 normalized median ratio in [13] worked out at 15%; in [14], 16%; in [21], 26%; in [22] it was 84%; in [23], 61%; in [24], 85%. Also, the figures for the H2L2:H2L1 normalized median ratio in [25] and in assay [26] were 39% and 74%, respectively. Moreover, the H2L2:H2L1 normalized median scalar value ln(r1/f1) in assay [22] stood at 1.63; in assay [23], 0.43; in [24], 1.75; in assay [26] it was 1.06.

In the case of “Pertuzumab Fab heavy chain S188K (H2), ABD2-His6 tagged”, the H2L2:H2L1 normalized median ratio in [13] turned out to be 9%; in assay [27], 20%; in [14], 14%; in assay [29] it was 80%; in assay [21], 14%; in assay [30] it was 5%. In addition, the H2L2:H2L1 normalized median ratio came to 5% in [31]; 86% in assay [33]; 86% in assay [35]; 89% in assay [37]; 95% in assay [38]; 90% in assay [39]. Besides, the H2L2:H2L1 normalized median ratio in assay [41] was found to be 85%; in assay [42], 95%; in assay [43], 86%; in [44], 11%; in assay [45] it was 14%; in assay [46], 15%. Moreover, the H2L2:H2L1 normalized median scalar value ln(r1/f1) turned out to be 2.67 in [28]; 1.41 in assay [29]; 2.77 in assay [32]; 1.85 in [33]; 2.75 in assay [34]; 1.83 in assay [35]. In addition, the H2L2:H2L1 normalized median scalar value ln(r1/f1) in assay [36] was 2.35; in assay [37], 2.09; in assay [38] it was 2.87; in assay [39], 2.16; in assay [40], 2.17; in [41] it was 1.77. Further, the H2L2:H2L1 normalized median scalar value ln(r1/f1) in assay [42] stood at 2.96; in assay [43] it was 1.78.

For the substance “Pertuzumab wild-type full-length IgG1 heavy chain (heterodimeric Fc) (from UniProt P0DOX5 2-448)”, the % H2L2 Pairing (over all H2 species) in assay [47] was 79.9%.
